The numbers were not newly measured in PMC3777542, which cites them from elsewhere.

In data set [1] the target is CD4 cytoplasmic tail (Homo sapiens) (UniProt P01730).
Data set [2] deals with Hck SH3 (Homo sapiens) (UniProt P08631).
In data set [3] the target is Hck (Homo sapiens) (UniProt P08631).
Data set [4] addresses AP-2 hemicomplex (Homo sapiens) (UniProt O95782). The data set can be described thus: SPR.
Sequence of UniProt O95782 (O95782 whole entry, chain 1 of 2): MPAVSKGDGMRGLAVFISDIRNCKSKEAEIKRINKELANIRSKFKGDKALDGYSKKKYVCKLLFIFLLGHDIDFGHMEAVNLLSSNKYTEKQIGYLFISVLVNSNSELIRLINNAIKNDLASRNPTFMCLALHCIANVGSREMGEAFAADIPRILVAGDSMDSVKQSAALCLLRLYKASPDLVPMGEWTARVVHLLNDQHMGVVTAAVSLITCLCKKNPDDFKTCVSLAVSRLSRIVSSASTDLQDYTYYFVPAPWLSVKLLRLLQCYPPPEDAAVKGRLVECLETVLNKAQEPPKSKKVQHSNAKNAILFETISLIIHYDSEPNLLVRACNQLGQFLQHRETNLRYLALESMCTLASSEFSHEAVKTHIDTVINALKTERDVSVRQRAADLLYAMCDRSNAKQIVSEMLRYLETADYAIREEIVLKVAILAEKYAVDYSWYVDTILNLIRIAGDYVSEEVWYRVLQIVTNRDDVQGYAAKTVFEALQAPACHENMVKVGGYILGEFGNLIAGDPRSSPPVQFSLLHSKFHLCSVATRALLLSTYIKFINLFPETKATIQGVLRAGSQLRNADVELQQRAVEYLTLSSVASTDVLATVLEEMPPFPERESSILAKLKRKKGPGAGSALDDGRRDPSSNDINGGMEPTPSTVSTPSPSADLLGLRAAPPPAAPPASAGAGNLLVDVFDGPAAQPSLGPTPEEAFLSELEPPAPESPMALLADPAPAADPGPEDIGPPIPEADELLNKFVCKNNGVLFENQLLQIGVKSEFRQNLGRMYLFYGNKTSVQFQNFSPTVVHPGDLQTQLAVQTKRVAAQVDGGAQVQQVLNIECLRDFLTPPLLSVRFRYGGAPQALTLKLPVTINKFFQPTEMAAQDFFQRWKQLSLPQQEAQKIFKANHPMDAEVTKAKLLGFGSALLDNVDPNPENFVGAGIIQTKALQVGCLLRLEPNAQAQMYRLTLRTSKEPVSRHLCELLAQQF
Sequence of UniProt O95782 (B2R4Z4 whole entry, chain 2 of 2, further chain): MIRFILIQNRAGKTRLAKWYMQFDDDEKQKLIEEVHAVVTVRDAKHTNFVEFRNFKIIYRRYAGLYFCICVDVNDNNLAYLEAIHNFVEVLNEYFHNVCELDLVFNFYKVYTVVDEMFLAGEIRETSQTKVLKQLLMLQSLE

One may read the Kd as the free concentration of one partner at which half of the binding sites on the other are occupied at equilibrium, for simple one-to-one binding. Take Nef (from UniProt P04324): the Kd in data set [1] was 1000 nM; in data set [2], 260 nM; in data set [3], 200 nM; in data set [4] it was 6 µM.
